Data taken from article PMC11045745, “NMR characterization of RNA binding property of the DEAD-box RNA helicase DDX3X and its implications for helicase activity”.

Target: DDX3X core WT (Homo sapiens, UniProt O00571 132-607)
Assay: NMR (13C-1H HMQC); AMPPNP; apparent affinity lower than E348Q with ATP; EMSA: 20 mM HEPES-NaOH pH 7.4, 100 mM NaCl, 5 mM DTT, 10% glycerol, 5 mM ATP/MgCl2 or ADP/EDTA, 100 nM RNA; NMR: 35 C (30 C for UA-12mer), 40-50 uM protein (HMQC) or 100 uM RNA (19F), 5 mM ATP/MgCl2; NMR buffer not given in the material
Details: protein: recombinant; tags: His6-SUMO removed (Ulp1); two-Gly linker

DDX3X core WT, sequence (O00571 132-607): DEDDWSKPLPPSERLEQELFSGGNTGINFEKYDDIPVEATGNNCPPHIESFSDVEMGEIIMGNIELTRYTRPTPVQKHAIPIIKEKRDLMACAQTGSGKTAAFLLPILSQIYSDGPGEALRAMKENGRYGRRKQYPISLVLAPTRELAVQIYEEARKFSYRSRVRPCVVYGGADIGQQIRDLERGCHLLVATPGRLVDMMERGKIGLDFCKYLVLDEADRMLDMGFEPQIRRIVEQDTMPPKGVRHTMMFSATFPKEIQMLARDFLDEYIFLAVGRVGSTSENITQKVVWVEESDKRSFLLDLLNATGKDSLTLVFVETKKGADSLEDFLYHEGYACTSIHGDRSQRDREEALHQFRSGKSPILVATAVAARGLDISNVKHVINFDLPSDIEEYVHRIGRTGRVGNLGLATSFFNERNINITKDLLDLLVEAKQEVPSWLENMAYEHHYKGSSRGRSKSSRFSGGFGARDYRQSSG

Binder: UUUUUUUUUU (ssRNA) [poly-U10]
- binding result: binds
